Laboratory results published in US20080279865A1, “Therapy of Prostate Cancer With Ctla-4 Antibodies and Hormonal Therapy” (Pfizer, Inc., Pfizer Products, Inc., priority 2005, published 2008).

Assays:
[1] = Single agent studies of ticilimumab in melanoma (diarrhea); format: in vivo, human
Text: In contrast, in the present study, 2 out of 3 patients treated with the combination of hormonal therapy and CTLA4 blockade had grade 3 diarrhea. […] Diarrhea is considered to be pharmacologically mediated in that it is likely related to the mechanism of action of ticilimumab. […] A possible correlation between tumor response in melanoma and putative “autoimmune breakthrough events” has been reported for single agent CTLA4 blockade in the absence of any other therapy (see Attia et al., J Clin Oncol. 23(25):6043-6053 (2005)).

prostate cancer = test: Neoadjuvant ticilimumab plus leuprolide and bicalutamide before prostatectomy in high risk prostate cancer; format: in vivo, human
Text: Patients with prostate cancer who are eligible for radical prostatectomy and who have an intermediate or high risk of recurrence according to current medical standards are candidates for antibody-hormonal combination neoadjuvant therapy. The target population for this study is defined using the risk of biochemical recurrence instead of the probability of pathologically confined cancer. This approach is supported by the observation that patients with disease confined to the prostate may have a biochemical recurrence despite “definitive” local treatment. Therefore, this patient definition is more comprehensive. Considering recent data showing that a time to PSA failure of less than 2 years predicts for distant failure, patients who are at high risk for early PSA failure are candidates for neoadjuvant (and adjuvant) antibody-hormonal combination therapy as disclosed herein.
Pre-operatively, approximately after the end of the last cycle of antibody-hormone combination therapy and prior to scheduled prostatectomy, the following evaluations are completed: any adverse events, ECOG PS, vital signs and weight, physical examination (including signs of autoimmunity), ECG, and DRE. Samples for hematology and chemistry panels, along with PT, APTT, CRP and PSA are obtained.
Post-operative assessments are performed approximately two weeks following surgery. The evaluation includes physical examination (including autoimmunity), vital signs, ECOG performance status, body weight, hematology, and chemistry panels, PT, APTT, TSH, T3, T4, amylase, lipase, CRP, urinalysis. Additional samples are obtained for autoantibody panel, PSA, testosterone, HAH titer and PK. All patients are assessed for pathological assessment of the surgical specimen and adverse events.
The patient is premedicated with antihistamine (H1) at least one half hour prior to infusion of anti-CTLA4, but premedication is not required. Patients were administered leuprolide (LUPRON) and bicalutamide (CASODEX) in combination with an anti-CTLA4 antibody (ticilimumab). More specifically, on day 1 (D1), the patient was administered a single IV infusion (100 mL/hr) of anti-CTLA4 antibody at a dose of 1 mg/kg, 3 mg/kg, or 6 mg/kg, in combination with a 7.5 mg IM injection of leuprolide (LUPRON DEPOT). A minimum of 3 patients were administered each antibody dose. The study was amended to reinitiate dose escalation at a lower dose level, i.e., 1 mg/kg. Three patients received that dose level, and are undergoing surgery (after 3 months of combination therapy). Dose escalation continued to 3 mg/kg. Dose escalation is ongoing at 6 mg/kg and 10 mg/kg.
Bicalutamide (CASODEX) was administered orally, in tablet form, at a dose of 50 mg, once per day for the first fourteen days commencing on day 1 (D1). Preferably, bicalutamide was taken at the same time each day on days D1-D14, and a patient medication diary was used to record any interruption of bicalutamide dosing.
Prophylactic anti-emetics and anti-diarrheals were given as appropriate. The treatment was repeated after 28 days with a […] of antibody and 7.5 mg IM injection of LUPRON DEPOT for a maximum of three cycles (D1, D28, and D56) preceding surgery.

ticilimumab: human IgG2 anti-CTLA4 antibody; heavy chain SEQ ID NO:26, light chain SEQ ID NO:32
patients with diarrhea ([1]; multiple doses of 6 mg/kg): none
patients with diarrhea grade 3 ([1]; single dose of 6 mg/kg): 1 out of three
diarrhea in a patient (prostate cancer; 3 mg/kg ticilimumab and hormonal therapy): prolonged diarrhea
prostatectomy specimen findings (prostate cancer; 6 mg/kg, patient 1005-1004, after three months of antibody therapy and hormonal therapy (leuprolide and bicalutamide), FIG. 4): detectable tumor regression and signs of an inflammatory infiltrate around tumor cells
patients who experienced diarrhea and did not complete the study (prostate cancer; cohort of three patients at 6 mg/kg with hormonal therapy): two
severity (duration and magnitude) of the diarrhea versus any other study at any dose level (prostate cancer; combination of hormonal therapy and CTLA4 blockade): significantly higher
patients with grade 3 diarrhea (prostate cancer; combination of hormonal therapy and CTLA4 blockade, cohort of three patients at 6 mg/kg): 2 out of 3
treatment effect in prostatectomy specimens (prostate cancer; several patients treated with 1 mg/kg and 6 mg/kg, with androgen blockade): regression of carcinoma and benign prostate glandular tissue, lymphocytic infiltrates (see FIG. 4), and signs of acute and chronic inflammation
